Results published in the supplement of paper PMC12042874.
± gives the uncertainty stated by the source.

Assay: amyloid nucleation score (Sup35N fusion, yeast selection) (log enrichment); library NNK2; higher = more nucleation; inactive = no reads after selection
In short: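 Libraries of peptides of 20 random codons fused to Sup35N were expressed in psi-negative yeast and induced 24 hours with 100 μM copper sulfate. Selection was 7 days at 30°C on medium lacking adenine and uracil, and plasmid inserts were Illumina-sequenced before and after selection. Nucleation score is the DiMSum log enrichment of output over input reads, centred on the mode score of non-aggregating sequences, and sequences with under 100 input reads were left out.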

| Substance | amyloid nucleation score |
| --- | --- |
| CFIENILRFGSW | 3.1 ± 0.052 |
| CFKDYQIGSCKQSL | -0.499 ± 0.76 |
| CFLGHGCILVGYLRDYRLLR | 0.759 ± 0.67 |
| CFLTTYNRNYNLMRVFSIFR | 1.43 ± 0.21 |
| CFMDFQWHMRSHG | -0.265 ± 0.3 |
| CFPSILSRFINLRCPGRSSY | inactive |
| CFSKMFNV | -1.03 ± 0.53 |
| CGARRGCDSWTSSTAGKSVG | 1.16 ± 0.61 |
| CGFIVKTAWGLVLATLGATY | 2.54 ± 0.11 |
| CGFSWCIDQLGTCLCKMVVV | -0.269 ± 0.28 |
| CGLLGVPFTKLTMLISRRMT | 0.286 ± 0.61 |
| CGLLYREVSIGQGSPTGVRD | inactive |
| CGLVLVIRVYITSLYNSRFM | 1.49 ± 0.14 |
| CGLWASNSSTFRDFESNESN | -0.51 ± 0.63 |
| CGMNGKTEGEWMGYRKDEGE | 6.03 ± 0.077 |
| CGMRTEMTLGCLILAAGTWT | 0.111 ± 0.5 |
| CGQFAYYGACDVGIFFRS | 4.74 ± 0.037 |
| CGRWVSGAWDGCGCGLGVLG | -0.305 ± 0.55 |
| CHHQRYGSGFRLRNSLTVGS | 0.015 ± 0.41 |
| CHPLEMWFFFSLGGFGVSMT | -1.54 ± 1.1 |
| CHQVI | 0.383 ± 0.74 |
| CHRLVLQLI | inactive |
| CHSLRILRPRIYSVQVMLIG | -0.01 ± 0.63 |
| CIAYRDSTAYHNMTRGTAMV | 3.72 ± 0.043 |
| CIDVRDTWNVPSVDYSMVLY | -0.363 ± 1.1 |
| CIEDRVCLDS | 8.276 ± 0.041 |

| Substance | amyloid nucleation score |
| --- | --- |
| CIFWLDYATFDTGLSLYMCE | -0.094 ± 1 |
| CIKALRVYFYEGFTSTR | -1.89 ± 1.1 |
| CILRGLVASSNNSGSIGAMK | 0.361 ± 0.23 |
| CINYG | 0.96 ± 0.39 |
| CIVMLRTIIQRSFNMSMTHY | 3.2 ± 0.058 |
| CIYHGANRIYLSDVA | 0.381 ± 0.6 |
| CKIEGWCTGCGSRQLRARAE | 1.09 ± 0.34 |
| CKWMLEENMGQEADSV | -0.289 ± 0.21 |
| CLAISWEGWSNSFGRYVVGW | 1.86 ± 0.1 |
| CLCQIHSRSYPFIL | 0.148 ± 1 |
| CLGSLHNVLQALAMTEPSNY | 0.044 ± 0.79 |
| CLKAFIWLRRLEGQI | 0.082 ± 1.1 |
| CLKEMVKVCRGWWRANGSGR | 0.433 ± 0.46 |
| CLRGSR | 0.03 ± 0.2 |
| CLRLFTQSGFE | -0.362 ± 0.38 |
| CLSSSSVVALGNRLETWIYA | 2.73 ± 0.086 |
| CLSVCCEDFNRSLTHYASSL | -0.743 ± 0.76 |
| CLVVHFPVCQQAKKDCDFRY | 4.53 ± 0.051 |
| CLVVLISVVPMVGSLFSRCG | inactive |
| CLWSSNSSSIWDIGRYFRR | -1.21 ± 0.31 |
| CLYCVMASQWGCFGLVESVT | 1.73 ± 0.47 |
| CMCENTYNRRIKVRYEWLKW | -0.619 ± 0.21 |
| CMGFLYTNTYCGGILIELFI | inactive |
| CMMLAPLCLSLL | -0.018 ± 1.1 |
| CMSVGGGLHG | 3.13 ± 0.071 |
| CMWGVDQPCLTTLTEAVLKP | 1.96 ± 0.12 |

| Substance | amyloid nucleation score |
| --- | --- |
| CNCDMLFCTTVSFRVLDTEN | 8.295 ± 0.037 |
| CNFEHFFYKVFRFLQWTVYE | -0.153 ± 1.1 |
| CNFSCGPKNQKNSMILWILN | inactive |
| CNHFMTFRWWLVEQAGSMLA | 0.044 ± 1.1 |
| CNLESMQSHFMVLCTFDG | -0.044 ± 0.63 |
| CNRCIQRMRASMTDSVFSGV | -1.35 ± 0.49 |
| CNRLVVLSSCNWYRDVADSL | 0.115 ± 1 |
| CNSSSGHDKIVIGSLFRVFA | -1.42 ± 0.62 |
| CNVSCFVRVVFKWIIS | 2.33 ± 0.24 |
| CNVSSELCYYGMSTYIKNPM | -0.947 ± 0.32 |
| CPFESRIAST | 0.132 ± 0.26 |
| CPGRRTISFYSFSFVFRSMN | inactive |
| CPWSQSRLAYYTCGYYTASS | 0.193 ± 0.5 |
| CQAVRRILCYWTAYDIERAV | 1.16 ± 0.22 |
| CQDSALALGDVFVPDKGVVR | 0.36 ± 0.8 |
| CQMYHKCALVLLAGHQLRRR | 1.19 ± 0.33 |
| CQRTTGALTSGWKPDDIGSV | 0.192 ± 0.46 |
| CQSCYYHNR | -0.77 ± 0.21 |
| CRARNCVRLW | 0.165 ± 0.65 |
| CRCGWKGDSFKISMKMRNWV | 5.36 ± 0.066 |
| CRFIRFHYLGYNLGSHHIYI | -0.902 ± 0.78 |
| CRFKVQQMTMENLAQMLVKG | 1.15 ± 0.68 |
| CRGTQALSYSLS | -0.017 ± 0.76 |
| CRGVNVHDSSW | -0.321 ± 0.22 |
| CRITNSNSL | -0.448 ± 0.28 |
| CRKCFT | 0.717 ± 0.4 |

| Substance | amyloid nucleation score |
| --- | --- |
| CRMHVFVEC | -0.019 ± 0.53 |
| CRSFAVTDLRVYVKF | 2.12 ± 0.12 |
| CRSTGIDIIYYHISFFLYIW | inactive |
| CRVALSVVYHTINEKQWYRV | -0.988 ± 0.28 |
| CRVYMVDWGVVLRFDVRGSS | -0.909 ± 0.78 |
| CRYTASASDPDDTGLIRFNA | 3.75 ± 0.073 |
| CSCDGWVCPCSACIC | 8.708 ± 0.035 |
| CSDCDSRMC | -0.41 ± 0.42 |
| CSHTVFGSVCGFTLFQVH | 4.06 ± 0.13 |
| CSIVVNQARCDGSCNYRKVM | 9.731 ± 0.055 |
| CSLLGNFYILGYWATFMASD | -1.57 ± 0.53 |
| CSLMNNRVHFVWSHRRMSGT | 0.276 ± 1 |
| CSLVAPGTYYYGEWFPGQMS | -0.66 ± 0.29 |
| CSNYFLSEELRHSVEVGSES | 0.463 ± 0.18 |
| CSPYVRSCTGYVEWGSIRTM | 0.06 ± 0.29 |
| CSRLG | -1.39 ± 1.1 |
| CSSYHLEYKCYKHLLWFQSR | -0.306 ± 0.3 |
| CSVWWLWSLRM | 1.13 ± 0.43 |
| CSVYVCQLSLCCSVY | 6.426 ± 0.06 |
| CSYWNVGYREVRMTDDDTMG | -0.975 ± 0.53 |
| CTCFGRVRLQKSIWGKRLIH | -0.383 ± 0.56 |
| CTEGQLN | 0.002 ± 0.55 |
| CTFFTSTPT | 0.343 ± 0.51 |
| CTSASGTSPGWNKRGRNWGD | 5.52 ± 0.095 |
| CTWIYTLTFFARNS | 0.01 ± 0.55 |
| CVECYFRCGLGITEVDTN | inactive |

| Substance | amyloid nucleation score |
| --- | --- |
| CVFASNKRMEGVDKKLRVRN | 0.403 ± 0.62 |
| CVICDNYFILEAVF | -0.771 ± 1.1 |
| CVICHYHLCLRQCIWSG | 5.373 ± 0.033 |
| CVIGADALASG | 0.5 ± 0.38 |
| CVILLVIFMLYIYWFSDMFL | -0.721 ± 0.63 |
| CVMHVRHHYGDI | inactive |
| CVMMLSSFLQRCRRVVLDSR | 0.325 ± 0.56 |
| CVMTRRSTKCFSMSLLSIWL | 6.496 ± 0.056 |
| CVREIYYVFCINSPVIAMDC | 6.149 ± 0.038 |
| CVSSARNIHFNGVVKCVRYR | 2.79 ± 0.054 |
| CVSVGCVESGTMICQLKLSQ | 7.19 ± 0.075 |
| CVVRSSAKRFDCRKFGRASN | 0.599 ± 0.8 |
| CWFHGLWIRGVDNSSVYWMD | -0.466 ± 0.65 |
| CWFMYPSMIDWWSMTSRECF | -0.129 ± 0.18 |
| CWMIQLVVLEWCAHGPRVAN | -0.304 ± 0.41 |
| CWTEY | -0.589 ± 0.3 |
| CYCDSWIMAS | -1.69 ± 0.55 |
| CYCEEMSMNTFKTCINTGAM | 1.04 ± 0.42 |
| CYIFYS | inactive |
| DAFGRIGPNEKLYDGEDECW | 0.902 ± 0.22 |
| DAFWCYVDTLYMNRPSQ | 0.988 ± 0.29 |
| DAMFFKCRMYRAVGRFFREG | 0.02 ± 0.28 |
